From patent US20070009964A1 (MERCK SERONO, published 2007)

Assays:
[1] = biological target: T1, Human OX40R-IgG1 fusion protein (human, UniProt P43489 29-208); test: Alphascreen binding assay, increasing OX40L-CD8 with 5 nM OX40R-IgG1; 5 nM OX40-IgG1
T1 construct: range 1-208; Purified on protein G; also called OX40-IgG1; OX40-IgG; not shown: constant region of human IgG1 (hinge region, CH2 and CH3), amino acids 98-330 of SWISSPROT Acc; No. P01857
T1 sequence (looked up): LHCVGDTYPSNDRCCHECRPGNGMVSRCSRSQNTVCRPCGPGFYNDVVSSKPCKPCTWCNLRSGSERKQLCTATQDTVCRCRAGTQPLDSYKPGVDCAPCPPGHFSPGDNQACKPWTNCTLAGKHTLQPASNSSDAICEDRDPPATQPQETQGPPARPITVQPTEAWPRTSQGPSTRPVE

[2] = biological target: T1, Human OX40R-IgG1 fusion protein; test: Alphascreen binding assay, increasing OX40L-CD8 with 10 nM OX40R-IgG1; 10 nM OX40-IgG1
[3] = biological target: T1, Human OX40R-IgG1 fusion protein; test: Alphascreen saturation binding, 10 nM OX40R-IgG1, non-specific binding determined with 1 mM suramin
[4] = biological target: T1, Human OX40R-IgG1 fusion protein; test: fluorescence quenching spectroscopy of OX40R-IgG1 in solution
Description: (§1) The fluorescence quenching assay was performed as previously described (Golabek A et al., 2000). OX40R-IgG₁ (35 micrograms) was dissolved in 500 microliters of PBS and the fluorescence spectum was recorded at 295-420 nanometers with an excitation wavelength of 290 nanometers using a spectrofluorimeter (Perkin Elmer LS50B) with the slits set at 5 nanometers. Fluorescence spectra of human OX40R-IgG₁ were then recorded in the presence of increasing concentrations (5-1000 nM) of P5 and P5-1 peptides after 15 minutes of equilibration. The fluorescence change at 336 nanometers was plotted versus peptide concentration and the resulting curves were analyzed by nonlinear regression fit with Prism® software (GraphPad).
(§2) The affinity of the peptides identified in Example 1 as inhibitor of OX40L-OX40R interaction was evaluated by fluorescence quenching spectroscopy, a technology allowing such measurements in solution, under native conditions and without beads or other supports. This method is based on monitoring the changes in the intrinsic fluorescence of a protein (OX40R-IgG₁) upon its binding with another protein (P5 or P5-1). […]

[5] = biological target: T1, Human OX40R-IgG1 fusion protein; test: Alphascreen-based competition assay against OX40L-CD8 on OX40R-IgG1; P5 (amino acids 94-124)
Description: (§3) The soluble components (OX40-IgG₁, OX40L-CD8 and biotinylated anti-CD8 antibody) were mixed at the concentration described before for the competition assays with OX40L and suramin (FIG. 4), together with various concentrations of each peptide in a 5 microliter volume into a first addition step. The streptavidin donor and Protein A acceptor beads were added 30 minutes later. The plates were incubated for 2 hours in the dark, at room temperature and with shaking, before reading at a long excitation wavelength of 680 nm combined with a shorter emission wavelength of 520-620 nanometers, as described in Example 1.

[6] = biological target: T1, Human OX40R-IgG1 fusion protein; test: fluorescence quenching spectroscopy of OX40R-IgG1 intrinsic fluorescence, non-linear regression
Description: as §1, §2

[7] = biological target: T1, Human OX40R-IgG1 fusion protein; test: Alphascreen-based competition assay against OX40L-CD8 on OX40R-IgG1; P5-1 (amino acids 107-116)
Description: as §3

[8] = biological target: T1, Human OX40R-IgG1 fusion protein; test: Alphascreen competition against OX40L-CD8, IC50 transformed by the Cheng-Prusoff equation
Description: (§4) In the standard assay, OX40-IgG₁ and OX40L-CD8 were incubated together for 30 minutes, and then biotinylated anti-CD8 antibody (10 nM) was added. Following another incubation period of 30 minutes, streptavidin donor beads (20 μg/ml) and Protein A acceptor beads (20 μg/ml) were added to each individual well. The plate was counted 1 hour later using a Packard Fusion™ reader (Biosignal Packard) set at a read time of 1 second/well. Owing to the light sensitivity of the donor and acceptor beads, the experiments were carried out under […] and all incubation periods were performed at room temperature. The plate was read at an excitation wavelength of 680 nanometers combined with a shorter emission wavelength of 520-620 nanometers.
(§5) The ability of two known competitors of OX40L-OX40R interactions (untagged recombinant human soluble OX40L and suramin), which are themselves unable to generate an Alphascreen™ signal in this assay in absence of OX40L-CD8, to displace OX40L-CD8 from OX40R-IgG₁ was investigated. […] Increasing concentrations of OX40L (3 μM-0.1 pM) or suramin (1 mM -1 nM) were added to a reaction mixture also containing OX40-IgG₁ (10 nM) and OX40L-CD8 (40 nM). […] These values can be transformed by the Cheng-Prusoff equation (Cheng, Y C and Prusoff, W H, 1973) to Kᵢ values of 2.0 nM for OX40L and 26.3 μM for suramin. […]

[9] = biological target: T1, Human OX40R-IgG1 fusion protein; test: Alphascreen competition, soluble OX40L displacing OX40L-CD8 (40 nM) from OX40R-IgG1 (10 nM)
Description: as §4, §5

What does the source list for “Human OX40L-murine CD8 (from UniProt P01731 28-196) (ligand)”?
EC50 [1]: 7.7 nM; EC50 [2]: 7.9 nM; Kd [3]: 20.7 nM

B1: Peptide P5 (amino acids 94-124 of human OX40L) (peptide)
peptide: IINCDGFYLISLKGYFSQEVNISLHYQKDEE
notes: Synthetic peptide (Epytop), purity 85-97%
With B1 as the molecule, how does the Kd [4] read?
The Kd was about 7.9 nM.

What about the Kd [5] of the same molecule?
The Kd was about 10000 nM.

What about the Kd [6] of the same molecule?
Its Kd is 7.96 nM.

B2: Peptide P5-1 (amino acids 107-116 of human OX40L) (peptide)
peptide: GYFSQEVNIS
notes: Synthetic peptide (Epytop)
How did the Kd [4] turn out when B2 was run?
The Kd was about 24.6 nM.

What about the Kd [7] of the same molecule?
The Kd was about 62000 nM.

What about the Kd [6] of the same molecule?
The Kd was 24.6 nM.

B3: Recombinant human soluble OX40L (ligand)
chain: QVSHRYPRIQSIKVQFTEYKKEKGFILTSQKEDEIMKVQNNSVIINCDGFYLISLKGYFSQEVNISLHYQKDEEPLFQLKKVRSVNSLMVASLTYKDKVYLNVTTDNTSLDDFHVNGGELILIHQNPGEFCVL
notes: also called untagged recombinant human soluble OX40L; not shown: Glutathione-S-Transferase (GST) fusion partner
What does the source list for B3?
Ki [8]: 2 nM; IC50 [9]: 5.9 nM
